Test: Stability challenge test of plant-made EGF in formulation 1
Type: physicochemical
Details: reconstituted freeze-dried non-glycosylated EGF in formulation 1; +4° C., RT and +37° C.; up to 3 weeks; gel, FIG. 5
Excerpt: Size markers 11 and 17 kDa in the first lane. […] (Ref.http://www.cellsciences.com/PDF/CRE100.pdf)

In the case of “plant-made EGF: purified, reconstituted freeze-dried, non-glycosylated, plant-made EGF in a formulation as in Example 5, formulation 1”, the “stability of the growth factor” value is reported as “excellent stability”.
